Reference: IntAct's records for PubMed 25761904

B1: Dual oxidase 2 (Homo sapiens), Q9NRD8 (parent)
chain: MLRARPEALMLLGALLTGSLGPSGNQDALSLPWEVQRYDGWFNNLRHHERGAVGCRLQRRVPANYADGVYQALEEPQLPNPRRLSNAATRGIAGLPSLHNRTVLGVFFGYHVLSDVVSVETPGCPAEFLNIRIPPGDPVFDPDQRGDVVLPFQRSRWDPETGRSPSNPRDLANQVTGWLDGSAIYGSSHSWSDALRSFSGGQLASGPDPAFPRDSQNPLLMWAAPDPATGQNGPRGLYAFGAERGNREPFLQALGLLWFRYHNLWAQRLARQHPDWEDEELFQHARKRVIATYQNIAVYEWLPSFLQKTLPEYTGYRPFLDPSISPEFVVASEQFFSTMVPPGVYMRNASCHFRKVLNKGFQSSQALRVCNNYWIRENPNLNSTQEVNELLLGMASQISELEDNIVVEDLRDYWPGPGKFSRTDYVASSIQRGRDMGLPSYSQALLAFGLDIPRNWSDLNPNVDPQVLEATAALYNQDLSQLELLLGGLLESHGDPGPLFSAIVLDQFVRLRDGDRYWFENTRNGLFSKKEIEDIRNTTLRDVLVAVINIDPSALQPNVFVWHKGAPCPQPKQLTTDGLPQCAPLTVLDFFEGSSPGFAITIIALCCLPLVSLLLSGVVAYFRGREHKKLQKKLKESVKKEAAKDGVPAMEWPGPKERSSPIIIQLLSDRCLQVLNRHLTVLRVVQLQPLQQVNLILSNNRGCRTLLLKIPKEYDLVLLFSSEEERGAFVQQLWDFCVRWALGLHVAEMSEKELFRKAVTKQQRERILEIFFRHLFAQVLDINQADAGTLPLDSSQKVREALTCELSRAEFAESLGLKPQDMFVESMFSLADKDGNGYLSFREFLDILVVFMKGSPEDKSRLMFTMYDLDENGFLSKDEFFTMMRSFIEISNNCLSKAQLAEVVESMFRESGFQDKEELTWEDFHFMLRDHDSELRFTQLCVKGGGGGGNGIRDIFKQNISCRVSFITRTPGERSHPQGLGPPAPEAPELGGPGLKKRFGKKAAVPTPRLYTEALQEKMQRGFLAQKLQQYKRFVENYRRHIVCVAIFSAICVGVFADRAYYYGFASPPSDIAQTTLVGIILSRGTAASVSFMFSYILLTMCRNLITFLRETFLNRYVPFDAAVDFHRWIAMAAVVLAILHSAGHAVNVYIFSVSPLSLLACIFPNVFVNDGSKLPQKFYWWFFQTVPGMTGVLLLLVLAIMYVFASHHFRRRSFRGFWLTHHLYILLYALLIIHGSYALIQLPTFHIYFLVPAIIYGGDKLVSLSRKKVEISVVKAELLPSGVTYLQFQRPQGFEYKSGQWVRIACLALGTTEYHPFTLTSAPHEDTLSLHIRAVGPWTTRLREIYSSPKGNGCAGYPKLYLDGPFGEGHQEWHKFEVSVLVGGGIGVTPFASILKDLVFKSSLGSQMLCKKIYFIWVTRTQRQFEWLADIIQEVEENDHQDLVSVHIYVTQLAEKFDLRTTMLYICERHFQKVLNRSLFTGLRSITHFGRPPFEPFFNSLQEVHPQVRKIGVFSCGPPGMTKNVEKACQLVNRQDRAHFMHHYENF
partner: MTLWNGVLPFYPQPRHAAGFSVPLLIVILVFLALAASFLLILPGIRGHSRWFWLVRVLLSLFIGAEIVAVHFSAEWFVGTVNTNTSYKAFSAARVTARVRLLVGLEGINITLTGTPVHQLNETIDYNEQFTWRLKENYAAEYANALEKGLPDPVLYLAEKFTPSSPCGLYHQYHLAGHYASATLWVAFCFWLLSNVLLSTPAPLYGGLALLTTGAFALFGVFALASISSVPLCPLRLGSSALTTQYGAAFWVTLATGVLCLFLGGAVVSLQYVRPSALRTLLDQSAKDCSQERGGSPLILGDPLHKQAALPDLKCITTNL
B2: Dual oxidase maturation factor 2 (Homo sapiens), Q1HG44 (parent)
chain: B1 partner

Variants of: B1
Details: with doxa2_human DUOXA2, Q1HG44

Row | Variant | effect of a mutation on the interaction
1 | C1162G | disrupting interaction strength

Variants of: B1
Details: with doxa2_human DUOXA2, Q1HG44
Remark: another data set of the same source

Row | Variant | effect of a mutation on the interaction
2 | C124G | disrupting interaction strength

Variants of: B1
Details: with doxa2_human DUOXA2, Q1HG44
Remark: another data set of the same source

Row | Variant | effect of a mutation on the interaction
3 | C568G | disrupting interaction strength
4 | C351G | with no effect
5 | C370G | decreasing interaction strength
6 | C582G | disrupting interaction strength

Variants of: B2
Details: with duox2_human DUOX2, Q9NRD8

Row | Variant | effect of a mutation on the interaction
7 | MTLWNGVLPFYPQPRHAAGFSVPLLIVILVFLALAASFLLILPGIRGHSRWFWLVRVLLSLFIGAEIVAVHFSAEWFVGTVNTNTSYKAFSAARVTARVRLLVGLEGINITLTGTPVHQLNETIDYNEQFTWRLKENYAAEYANALEKGLPDPVLYLAEKFTPSSPCGLYHQYHLAGHYASATLWVAFCFWLLSNVLLSTPAPLYGGLALLTTGAFALFGVFALASISSVPLGPLRLGSSALTTQYGAAFWVTLATGVLCLFLGGAVVSLQYVRPSALRTLLDQSAKDCSQERGGSPLILGDPLHKQAALPDLKCITTNL [C233G] | disrupting interaction strength
8 | MTLWNGVLPFYPQPRHAAGFSVPLLIVILVFLALAASFLLILPGIRGHSRWFWLVRVLLSLFIGAEIVAVHFSAEWFVGTVNTNTSYKAFSAARVTARVRLLVGLEGINITLTGTPVHQLNETIDYNEQFTWRLKENYAAEYANALEKGLPDPVLYLAEKFTPSSPGGLYHQYHLAGHYASATLWVAFCFWLLSNVLLSTPAPLYGGLALLTTGAFALFGVFALASISSVPLCPLRLGSSALTTQYGAAFWVTLATGVLCLFLGGAVVSLQYVRPSALRTLLDQSAKDCSQERGGSPLILGDPLHKQAALPDLKCITTNL [C167G] | disrupting interaction strength
